Columns and labels:
[1] = target: human C6 FIM1-2 fragment (residues 766–934) with an N-terminal 10xHis-tag (human, UniProt P13671 766-934); assay: BLI
[2] = target: recombinant full-length human C6 with a C-terminal 10xHis-tag (human, UniProt P13671 22-934); assay: BLI
[3] = target: biotinylated AVI-tagged full-length human C6 (Homo sapiens, UniProt P13671, biotin on the AVI-tag (BirA ligase)); assay: BLI
[4] = target: human C6 FIM1-2 fragment (residues 766–934) with an N-terminal 10xHis-tag (human, UniProt P13671); assay: BLI
[5] = target: Macaca C6 FIM1-2 fragment (Macaca fascicularis (entry of printed …, UniProt A0A2K5W3S5)); assay: BLI
[6] = target: pig (Sus scrofa) C6 FIM1-2 fragment (Sus scrofa, UniProt A0SEH0); assay: BLI
dog C6 FIM1-2 fragment = target: T1, dog C6 FIM1-2 fragment (Canis lupus familiaris); assay: BLI
T1 chain: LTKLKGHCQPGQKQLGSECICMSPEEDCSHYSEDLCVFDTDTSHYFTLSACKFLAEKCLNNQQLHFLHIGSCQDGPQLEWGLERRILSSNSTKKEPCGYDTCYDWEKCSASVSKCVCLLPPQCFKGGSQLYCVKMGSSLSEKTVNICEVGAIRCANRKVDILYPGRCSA

[7] = target: C6∆FIM1-2 (1–762) with a C-terminal His-tag (human, UniProt P13671); assay: SEC
Chain of C6∆FIM1-2 (1–762) with a C-terminal His-tag (P13671 22-762): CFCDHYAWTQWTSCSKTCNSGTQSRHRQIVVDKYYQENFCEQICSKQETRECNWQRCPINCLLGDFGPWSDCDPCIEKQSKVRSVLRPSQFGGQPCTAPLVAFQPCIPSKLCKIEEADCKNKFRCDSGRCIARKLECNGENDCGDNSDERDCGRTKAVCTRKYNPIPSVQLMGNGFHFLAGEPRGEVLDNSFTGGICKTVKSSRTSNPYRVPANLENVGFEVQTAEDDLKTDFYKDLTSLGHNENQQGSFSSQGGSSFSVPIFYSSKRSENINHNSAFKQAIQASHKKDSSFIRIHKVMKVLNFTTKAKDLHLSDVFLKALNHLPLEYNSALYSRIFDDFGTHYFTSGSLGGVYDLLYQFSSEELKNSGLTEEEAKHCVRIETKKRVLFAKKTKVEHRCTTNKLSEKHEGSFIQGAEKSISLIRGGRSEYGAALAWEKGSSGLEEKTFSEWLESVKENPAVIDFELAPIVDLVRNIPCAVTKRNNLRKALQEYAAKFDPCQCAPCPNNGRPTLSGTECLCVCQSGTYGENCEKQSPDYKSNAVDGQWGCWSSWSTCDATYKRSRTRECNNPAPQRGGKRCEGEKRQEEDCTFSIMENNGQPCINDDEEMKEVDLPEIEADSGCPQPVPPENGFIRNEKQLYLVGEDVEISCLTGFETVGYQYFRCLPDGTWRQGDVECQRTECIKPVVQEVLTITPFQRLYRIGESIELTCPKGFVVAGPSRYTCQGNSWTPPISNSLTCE

Chain of human C6 FIM1-2 fragment (residues 766–934) with an N-terminal 10xHis-tag (human, UniProt P13671 766-934) (P13671 766-934): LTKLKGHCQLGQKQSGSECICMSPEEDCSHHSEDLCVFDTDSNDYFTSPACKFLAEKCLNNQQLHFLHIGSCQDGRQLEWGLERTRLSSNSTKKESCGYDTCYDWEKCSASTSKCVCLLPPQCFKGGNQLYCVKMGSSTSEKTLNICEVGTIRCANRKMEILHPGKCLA
Chain of human C6 FIM1-2 fragment (residues 766–934) with an N-terminal 10xHis-tag (human, UniProt P13671) (P13671 766-934): as above
Chain of recombinant full-length human C6 with a C-terminal 10xHis-tag (P13671 22-934): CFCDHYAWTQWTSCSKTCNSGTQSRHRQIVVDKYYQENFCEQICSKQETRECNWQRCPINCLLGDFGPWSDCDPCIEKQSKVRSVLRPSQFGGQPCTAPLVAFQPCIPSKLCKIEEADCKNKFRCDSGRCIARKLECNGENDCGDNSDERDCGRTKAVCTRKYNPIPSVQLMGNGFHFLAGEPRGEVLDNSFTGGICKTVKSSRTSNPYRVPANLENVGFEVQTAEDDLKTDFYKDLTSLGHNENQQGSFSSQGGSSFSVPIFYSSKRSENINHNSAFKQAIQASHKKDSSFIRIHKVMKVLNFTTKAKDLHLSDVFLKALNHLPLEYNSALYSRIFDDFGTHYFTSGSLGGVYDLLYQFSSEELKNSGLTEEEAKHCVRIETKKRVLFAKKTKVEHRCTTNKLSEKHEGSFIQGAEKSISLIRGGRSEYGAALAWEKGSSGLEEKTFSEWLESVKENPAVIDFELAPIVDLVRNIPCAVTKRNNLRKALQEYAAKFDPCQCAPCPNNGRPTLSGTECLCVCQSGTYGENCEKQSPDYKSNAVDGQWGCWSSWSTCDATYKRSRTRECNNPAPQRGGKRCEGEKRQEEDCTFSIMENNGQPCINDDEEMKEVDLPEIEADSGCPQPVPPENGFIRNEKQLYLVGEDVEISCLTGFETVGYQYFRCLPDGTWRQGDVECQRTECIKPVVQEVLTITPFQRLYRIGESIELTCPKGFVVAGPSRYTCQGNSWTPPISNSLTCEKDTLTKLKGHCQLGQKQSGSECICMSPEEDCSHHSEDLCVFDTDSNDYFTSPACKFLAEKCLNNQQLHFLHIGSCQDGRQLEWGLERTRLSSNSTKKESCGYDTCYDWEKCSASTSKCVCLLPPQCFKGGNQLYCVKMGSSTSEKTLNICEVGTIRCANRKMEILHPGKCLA
Chain of biotinylated AVI-tagged full-length human C6 (P13671 22-934): as above

B1: human C5 C345c domain (residues 1528–1676) (domain or fragment, UniProt P01031 1528-1676, looked up)
chain: VEADCGQMQEELDLTISAETRKQTACKPEIAYAYKVSITSITVENVFVKYKATLLDIYKTGEAVAEKDSEITFIKKVTCTNAELVKGRQYLIMGKEALQIKYNFSFRYIYPLDSLTWIEYWPRDTTCSSCQAFLANLDEFAEDIFLNGC
- Kd [1]: 5 nM
- Kd [2]: 10 to 20 nM

B2: CP010 Fab (Fab, V domains shown)
VH: EVQLVESDGGLVQPGGSLKLSCAASGFTFSDYYMAWVRQGPGKGLEWVATINYDGSSTYYRESVKGRFTISRDNAKNTLYLQMNSLRAEDTATYYCARPSTEALFAYWGHGTLVTVSS
VL: DVVLTQTPSTLSVTPGQPASISCRSSQSLLNDVGNTYLYWYLQKPGQSPQLLIYLVSDLGSGVPNRFSGSGSGTDFTLKISRVEAEDVGIYYCMQASHAPYTFGQGTNLEIK
- Kd [3]: 0.3 nM
- Kd [4]: 2.8 nM
- Kd [5]: ~5 nM
- Kd [6]: ~5 nM
- Kd (dog C6 FIM1-2 fragment): ~5 nM

B3: CP010, fully humanized version of 7E5 with a human IgG4 S228P constant region (antibody, V domains shown)
VH: EVQLVESDGGLVQPGGSLKLSCAASGFTFSDYYMAWVRQGPGKGLEWVATINYDGSSTYYRESVKGRFTISRDNAKNTLYLQMNSLRAEDTATYYCARPSTEALFAYWGHGTLVTVSS
VL: DVVLTQTPSTLSVTPGQPASISCRSSQSLLNDVGNTYLYWYLQKPGQSPQLLIYLVSDLGSGVPNRFSGSGSGTDFTLKISRVEAEDVGIYYCMQASHAPYTFGQGTNLEIK
- binding result [7]: no binding

Source: publication PMC10643903 (Journal of Innate Immunity, 2022)
